{"source": "paper PMC8006934", "about": "(2021)", "binders": {"B1": {"name": "C-reactive protein (native CRP from human fluid) (natural protein)", "chain": "QTDMSRKAFVFPKESDTSYVSLKAPLTKPLKAFTVCLHFYTELSSTRGYSIFSYATKRQDNEILIFWSKDIGYSFTVGGSEILFEVPEVTVAPVHICTSWESASGIVEFWVDGKPRVRKSLKKGYTVGAEASIILGQEQDSFGGNFEGSQSLVGDIGNVNMWDFVLSPDEINTIYLGGPFSPNVLNWRALKYEVQGEVFTKPQLWP"}}, "experiment_in_all_cases": "SPR", "key": {"[1]": {"molecular_target": "T1, FcγRIa, human, C-terminally biotinylated (human, UniProt P12314 16-292, biotin, C-terminal)", "T1 chain": "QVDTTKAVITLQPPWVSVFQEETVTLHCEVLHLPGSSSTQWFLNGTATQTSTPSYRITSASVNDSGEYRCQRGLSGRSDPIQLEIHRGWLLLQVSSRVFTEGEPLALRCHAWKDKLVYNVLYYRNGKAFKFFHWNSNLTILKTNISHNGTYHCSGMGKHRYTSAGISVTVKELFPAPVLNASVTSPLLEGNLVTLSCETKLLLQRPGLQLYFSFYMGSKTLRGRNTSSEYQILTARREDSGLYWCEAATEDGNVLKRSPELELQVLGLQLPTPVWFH"}, "[2]": {"molecular_target": "T2, FcγRIIa-R131, human, C-terminally biotinylated (human, biotin, C-terminal)", "T2 chain": "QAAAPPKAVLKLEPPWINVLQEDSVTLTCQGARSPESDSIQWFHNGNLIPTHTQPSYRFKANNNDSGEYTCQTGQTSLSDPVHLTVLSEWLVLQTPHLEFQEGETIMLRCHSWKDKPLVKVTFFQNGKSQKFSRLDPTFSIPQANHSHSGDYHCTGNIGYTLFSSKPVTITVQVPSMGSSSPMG"}, "[3]": {"molecular_target": "FcγRIIIa-F158, human, C-terminally biotinylated (human, UniProt P08637 17-208, biotin, C-terminal)", "sequence (P08637 17-208)": "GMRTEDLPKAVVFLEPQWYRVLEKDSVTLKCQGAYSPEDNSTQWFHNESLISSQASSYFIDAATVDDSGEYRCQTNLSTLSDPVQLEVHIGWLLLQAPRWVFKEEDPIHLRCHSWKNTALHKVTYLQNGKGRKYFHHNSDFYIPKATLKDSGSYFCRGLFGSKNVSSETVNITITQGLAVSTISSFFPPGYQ"}, "[4]": {"molecular_target": "FcγRIIIa-V158, human, C-terminally biotinylated (human, UniProt P08637 17-208, p.176Val (V158), biotin, C-terminal)", "sequence (P08637 other isoform, or with tags, fused parts or gaps p.176Val (V158))": "as the sequence (P08637 17-208) above, with F160V counted along it"}, "[5]": {"molecular_target": "T3, FcγRIIa-H131, human, C-terminally biotinylated (human, UniProt P12318 34-217, biotin, C-terminal)", "T3 chain": "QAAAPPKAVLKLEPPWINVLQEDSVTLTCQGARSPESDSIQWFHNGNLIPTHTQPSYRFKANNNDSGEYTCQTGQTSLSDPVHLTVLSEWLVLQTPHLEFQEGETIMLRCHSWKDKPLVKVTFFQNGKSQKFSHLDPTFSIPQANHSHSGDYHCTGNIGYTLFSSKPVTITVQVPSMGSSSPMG"}}}
{"binder": "B1", "values": [{"measurement": "Kd", "setting": "[1]", "value": 3.4, "unit": "µM"}, {"measurement": "Kd", "setting": "[2]", "value": 4.6, "unit": "µM"}, {"measurement": "Kd", "setting": "[3]", "value": 4.9, "unit": "µM"}, {"measurement": "Kd", "setting": "[4]", "value": 4.4, "unit": "µM"}, {"measurement": "Kd", "setting": "[5]", "value": 4.5, "unit": "µM"}]}
